Laboratory results from US20160237157A1 (published 2016).

Key:
Assay in all cases: SPR
[1] = target: human FGFR4-Fc chimeric protein (UniProt P22455 22-369)
[2] = target: T1, mouse FGFR4-Fc chimeric protein (mouse, UniProt Q03142 17-366)
T1 chain: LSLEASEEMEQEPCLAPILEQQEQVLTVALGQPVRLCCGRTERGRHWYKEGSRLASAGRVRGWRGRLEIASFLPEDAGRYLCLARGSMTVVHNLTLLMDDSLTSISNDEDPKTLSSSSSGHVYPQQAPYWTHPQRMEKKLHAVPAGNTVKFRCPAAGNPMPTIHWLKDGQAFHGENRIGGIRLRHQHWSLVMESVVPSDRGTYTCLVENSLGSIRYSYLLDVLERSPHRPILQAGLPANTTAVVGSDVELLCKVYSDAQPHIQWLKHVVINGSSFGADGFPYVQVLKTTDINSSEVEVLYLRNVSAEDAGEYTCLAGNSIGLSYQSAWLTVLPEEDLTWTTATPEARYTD

Cynomolgus FGFR4 = Cynomolgus FGFR4 (cynomolgus monkey)

Chain of human FGFR4-Fc chimeric protein (P22455 22-369, change not shown): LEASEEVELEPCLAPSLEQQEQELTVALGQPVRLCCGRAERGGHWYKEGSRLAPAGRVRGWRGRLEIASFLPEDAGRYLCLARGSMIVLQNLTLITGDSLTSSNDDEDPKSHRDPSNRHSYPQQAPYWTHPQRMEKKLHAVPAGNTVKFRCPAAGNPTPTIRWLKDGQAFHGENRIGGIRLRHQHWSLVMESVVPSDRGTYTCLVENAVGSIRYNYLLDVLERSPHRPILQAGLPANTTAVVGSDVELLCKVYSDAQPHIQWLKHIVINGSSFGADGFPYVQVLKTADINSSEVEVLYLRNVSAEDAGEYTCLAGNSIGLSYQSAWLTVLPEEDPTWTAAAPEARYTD

B1: chimeric LD1 (chLD1) (antibody, V domains shown)
VH: EVQLQQPGAVLVRPGTSVKLSCKASGYTFTNHWMNWVKQRPGQGLEWIGMIHPSDSETTLDQKFKDKATLTVDKSSSTAYMQLNRPTSEDSAVYYCTRGDISLFDYWGQGTTVTVSS
VL: DIQMTQTTSSLSASLGDRVTITCRTSQDISNFLNWYQQKPDGTFKILISYTSRLHSGVPSRFSGSGSGTDYSLTISTLEQEDFATYFCQQGNALPYTFGGGTKLEIE
- Kd [1]: 0.7 nM
- Kd [2]: 0.7 nM

B2: LD1 (antibody, V domains shown)
VH: EVQLQQPGAVLVRPGTSVKLSCKASGYTFTNHWMNWVKQRPGQGLEWIGMIHPSDSETTLDQKFKDKATLTVDKSSSTAYMQLNRPTSEDSAVYYCTRGDISLFDYWGQGTTVTVSS
VL: DIQMTQTTSSLSASLGDRVTITCRTSQDISNFLNWYQQKPDGTFKILISYTSRLHSGVPSRFSGSGSGTDYSLTISTLEQEDFATYFCQQGNALPYTFGGGTKLEIE
- Kd (Cynomolgus FGFR4): 0.8 nM
